Source: patent US20240392024A1 (SHANGHAI CELGEN BIO PHARMACEUTICAL, published 2024)
Values joined by “and” are separate entries in the source; they are usually repeats but may differ in a detail not shown here. Equal values may be shown once.

What was measured:
[1] = molecular target: T1, TNFR2-His (Sino Biological, 10417-H08H, NP_001057.1 Met1-Asp257, with multi-histidine tag expressed on … (human, UniProt P20333 23-257)); test: ELISA, coated TNFR2-His
T1 construct: range 1-257; Bought protein; also called recombinant human TNFR2 protein; TNFR2-His antigen; not shown: C-terminal multi-histidine tag
T1 sequence (looked up): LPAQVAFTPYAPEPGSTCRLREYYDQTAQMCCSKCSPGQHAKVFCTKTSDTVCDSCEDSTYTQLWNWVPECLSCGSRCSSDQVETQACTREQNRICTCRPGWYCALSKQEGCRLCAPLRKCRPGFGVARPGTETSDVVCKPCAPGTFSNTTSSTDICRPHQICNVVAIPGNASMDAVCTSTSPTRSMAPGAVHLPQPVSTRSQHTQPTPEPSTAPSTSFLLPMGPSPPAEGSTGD
Method in brief: (§1)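 Antibodies were serially diluted and incubated on blocked ELISA plates coated with C-terminally His-tagged recombinant human TNFR2. Detection used an enzyme-labelled anti-IgG secondary antibody, TMB development and a microplate reader, and the dilution series gave the EC50.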

[2] = molecular target: T2, human TNFR2 on the cell membrane (human, UniProt P20333 23-461); test: flow cytometry, CHO-TNFR2 cells
T2 construct: whole, on cells; One molecule for all cell formats; also called TNFR2-CHO cells; CHO-TNFR2
T2 sequence (looked up): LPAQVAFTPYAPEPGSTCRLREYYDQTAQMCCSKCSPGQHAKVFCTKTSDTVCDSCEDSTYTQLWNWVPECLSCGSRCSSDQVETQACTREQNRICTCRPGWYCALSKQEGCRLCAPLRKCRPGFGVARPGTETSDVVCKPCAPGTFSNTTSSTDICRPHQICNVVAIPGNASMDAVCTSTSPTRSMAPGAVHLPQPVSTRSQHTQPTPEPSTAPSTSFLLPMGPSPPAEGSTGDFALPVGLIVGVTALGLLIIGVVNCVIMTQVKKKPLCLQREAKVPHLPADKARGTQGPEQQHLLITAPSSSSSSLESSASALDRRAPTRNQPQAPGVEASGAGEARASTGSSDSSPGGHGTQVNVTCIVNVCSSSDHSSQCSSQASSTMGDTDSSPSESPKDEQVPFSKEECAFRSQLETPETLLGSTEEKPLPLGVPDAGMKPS
Method in brief: (§2)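 Binding was measured by flow cytometry (Beckman CytoFLEX) on a CHO line stably overexpressing human TNFR2. Cells in 96-deep-well plates were exposed to serially diluted antibodies, washed and labelled with a fluorescent anti-IgG secondary antibody, and EC50 was determined across the dilutions.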

[3] = molecular target: T2, human TNFR2 on the cell membrane; test: flow cytometry, Jurkat-TNFR2 cells
Method: (§3) Purified human-mouse monoclonal antibodies against TNFR2 were co-cultured with TNFR2 positive Jurkat cells (Jurkat cells were transfected with pcDNA3.4-TNFR2 plasmid using conventional methods, and after screening, stable and highly expressed TNFR2 Jurkat cell lines were obtained) and stained. The antibody binding intensity was analyzed by flow cytometry. The specific steps are as follows: Jurkat-TNFR2 was counted, centrifuged, resuspended, then added to a 96-deep well plate, and the supernatant was discarded. The anti-TNFR2 antibody was gradient diluted, and added to the 96-deep well plate, After incubation and wash, the secondary antibody FITC-anti-human IgG (Abcam: 6854) was added, and the samples were detected using Beckman CytoFLEX.

[4] = molecular target: T1, TNFR2-His (Sino Biological, 10417-H08H, …); test: ELISA, plate coated with TNFR2-His
Method: To determine whether the human-mouse chimeric TNFR2 monoclonal antibody of the present invention can bind to recombinant human TNFR2 protein, in vitro ELISA test was conducted. Similar to the method described above, The plate was coated with TNFR2-His (Sino Biological, 10417-H08H, Assessment #NP_001057.1.Met1-Asp257, with multi-histidine tag expressed on C-terminus) antigens, and blocked with BSA, then added with gradient diluted human-mouse chimeric TNFR2 monoclonal antibodies for incubation. Then, secondary antibody Ap-anit-human IgG Fc (JacksonImmuno Research, 109-055-098) was added for incubation After TMB development, ELISA reading was performed.

[5] = molecular target: T2, human TNFR2 on the cell membrane; test: flow cytometry on CHO-TNFR2 cells
Method in brief: as §2

[6] = molecular target: T2, human TNFR2 on the cell membrane; test: flow cytometry on Jurkat-TNFR2 cells
Method: as §3

[7] = molecular target: T1, TNFR2-His (Sino Biological, 10417-H08H, …); test: ELISA, plate coated with TNFR2-His; remark: listed apart in the source
Method in brief: as §1

[8] = molecular target: T1, TNFR2-His (Sino Biological, 10417-H08H, …); test: BLI, antibody captured on AHC probe, TNFR2 in solution
Method: The GATOR (ProbeLife) detection instrument and AHC (Pall, 185064), Human antibody Capture probe were used to detect the dissociation constant (Kd) of human-mouse chimeric TNFR2 monoclonal antibody.
The human-mouse chimeric TNFR2 monoclonal antibodies were diluted to 50 nM in binding buffer (Q buffer [PBS (10 mM PH7.4)+0.02% Tween 20+0.2% BSA). The recombinant human TNFR2 protein was diluted in Q buffer with a 2-fold gradient starting from the highest concentration of 100 nM. The kinetic association assay was conducted by placing the antibody capture sensor in the continuously diluted antigen solutions mentioned above. The Octet Data Acquisition software was pened and the New Kinetics Experiment-Basic Kinetics mode was selected.

[9] = molecular target: T1, TNFR2-His (Sino Biological, 10417-H08H, …); test: BLI, antibody captured on AHC probe, TNFR2-His in solution
Method in brief: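 Antibodies at 50 nM in Q buffer were held on antibody-capture sensors, and the sensors were then moved into recombinant human TNFR2 diluted 2-fold in Q buffer, starting from 100 nM. Q buffer was 10 mM PBS pH 7.4 with 0.02% Tween 20 and 0.2% BSA. The work used bio-layer interferometry on an Octet in Basic Kinetics mode, and Kon, koff and Kd come from these kinetic association measurements.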

WT = molecular target: T3, WT; test: flow cytometry on ConA-stimulated spleen cells of WT mice, mCD3+ T cells
T3 construct: also called T cells of wild-type (WT) mice; mouse TNFR2 on the cell membrane
T3 chain: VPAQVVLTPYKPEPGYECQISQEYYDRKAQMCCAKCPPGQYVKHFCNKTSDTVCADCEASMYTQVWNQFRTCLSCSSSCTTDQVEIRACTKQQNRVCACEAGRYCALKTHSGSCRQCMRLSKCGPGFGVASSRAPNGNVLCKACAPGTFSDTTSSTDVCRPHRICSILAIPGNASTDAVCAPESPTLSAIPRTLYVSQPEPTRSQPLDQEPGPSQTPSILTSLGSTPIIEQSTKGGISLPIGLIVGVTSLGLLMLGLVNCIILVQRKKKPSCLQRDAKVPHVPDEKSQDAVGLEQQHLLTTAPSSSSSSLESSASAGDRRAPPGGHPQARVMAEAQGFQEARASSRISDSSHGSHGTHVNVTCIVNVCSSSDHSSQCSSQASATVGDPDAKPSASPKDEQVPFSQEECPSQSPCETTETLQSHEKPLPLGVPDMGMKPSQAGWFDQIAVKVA
Method: (§4) The cells were stained again with Cy-3 anti-human IgG and FITC anti-mCD3 (BD, 555274) after washing, under the same incubation conditions. After washing, the detection was performed.

[10] = molecular target: T2, human TNFR2 on the cell membrane; test: flow cytometry on ConA-stimulated spleen cells of hTNFR2-KI mice, mCD3+ T cells
Method: as §4

[11] = molecular target: T2, human TNFR2 on the cell membrane; test: flow cytometry on human PBMC, CD3+ T cells
Method: Purified anti-human TNFR2 human-mouse chimeric monoclonal antibodies were co-cultured with PBMC cells (Oricells) and stained. The binding of the antibody was analyzed by flow cytometry. The specific steps are as follows: PBMC cells (Oricells) were counted, centrifuged, resuspended, then added to a 96-deep well plate, and the supernatant was discarded. Diluted anti-TNFR2 monoclonal antibodies were added.

[12] = molecular target: T1, TNFR2-His (Sino Biological, 10417-H08H, …); test: competition ELISA, coated TNFR2-His, biotin-labeled TNFα fusion protein at fixed concentration
Method: (§5) The ELISA plate was coated with TNFR2-His antigen (Sino Biological, 10417-H08H, Assessment #NP_001057.1. Met1-Asp257, with multi-histidine tags expressed on C-terminus) and blocked, added with the gradient diluted TNFR2 monoclonal antibodies and biotin-labeled TNFα fusion protein of fixed concentration for incubation, then added with the secondary antibody Ap-Strepavidin (Herobio, 510401) for incubation. After development, the detection was performed using microplate reader.

[13] = molecular target: T1, TNFR2-His (Sino Biological, 10417-H08H, …); test: competition ELISA on coated TNFR2-His against biotin-labeled TNFα fusion protein at fixed concentration
Method: as §5

[14] = molecular target: T2, human TNFR2 on the cell membrane; test: competition flow cytometry, TNFR2 positive cells, TNFα fusion protein at fixed concentration
Method: Purified anti-human TNFR2 human-mouse monoclonal antibodies were co-cultured with TNFR2 positive cells and stained. The antibody binding intensity was analyzed by flow cytometry. The specific steps are as follows: cells were counted, centrifugated, resuspended, then added to a 96-deep well plate, and the supernatant was discarded. Gradient diluted anti-TNFR2 antibodies and TNFα fusion protein of fixed concentration were added. After incubation and wash, the secondary antibody PE-streptavidin (Biogen, 405203) was added for incubation, and the samples were detected using Beckman CytoFLEX.

Binder	EC50 [1] [nM]	EC50 [2] [nM]	EC50 [3] [µg/mL]	EC50 [4] [µg/mL]	EC50 [5] [µg/mL]	EC50 [6] [µg/mL]	EC50 [7]	Kd [8] [nM]	koff [8] [s⁻¹]	kon [8] [M⁻¹ s⁻¹]	Kd [9] [nM]	koff [9] [s⁻¹]	kon [9] [M⁻¹ s⁻¹]	binding result (WT)	percent of cells in the upper right quadrant (Q2-UR, mCD3+ and anti-hIgG+) (WT) [%]	percent of cells in the upper right quadrant (Q2-UR, mCD3+ and anti-hIgG+) [10] [%]	percent of cells in the upper right quadrant (Q1-UR, CD3+ and anti-human IgG Fc+) [11] [%]	IC50 [12] [µg/mL]	IC50 [13]	IC50 [14] [µg/mL]
human-mouse chimeric TNFR2 monoclonal antibody 33C12-hFc (antibody, V domains shown, Mouse V regions of clone 33C12 with human constant regions; also called human-mouse chimeric 33C12 antibody) VH: DVKLVESGGGLVKPGGSLKLSCAASGFTFSDYTMSWVRQTPEKRLEWVATISTGGSYTYYPDSVKGRFTISRDNAKNTLYLQMSSLKSEDTAMYYCTRDGGYDGDYFDYWGQGTTLTVSS VL: ENVLTQSPAIMSASPGEKVTMTCRASSSVSSSYLHWYQQKSGASPKLWIYRTSNLASGVPARFSGSGSGTSYSLTISSVEAEDAATYYCQQYSGYPLTFGAGTRLELK	0.318	0.951	0.66	0.0475	0.142	0.658	0.0782 µg/mL and 0.524 nM	21.9	0.00286	131000	17.3	0.00156	90500	no binding	1.02	43.6	–	–	–	–
human-mouse chimeric TNFR2 monoclonal antibody 29A1-hFc (antibody, V domains shown, Mouse V regions of clone 29A1 with human constant regions) VH: QVQLQQSGAEVVRPGASVTLSCKASGYTFSDYEMHWVKQTPVHGLEWIGAIDPETGDTAYNQKFKDKARVTADKSSSTAYMELRSLTSEDSAVYYCTRDIHYYGSSLSYFDYWGQGTTLTVSS VL: DIVMTQSQKFMSTSVGDRVSVTCKASQNVGTNVAWYQQKPGQSPKVMIYSASYRYSGAPDRFTGSGSGTDFTLTVNNVQSEDLAEYFCQQYKTYPYTFGGGTKLEIE	0.248	–	–	0.037	–	14.2	–	16.3	0.00469	289000	–	–	–	–	–	–	13.6	0.642	0.648 µg/mL and 4.34 nM	–
human-mouse chimeric TNFR2 monoclonal antibody 7F2-hFc (antibody, V domains shown, Mouse V regions of clone 7F2 with human constant regions) VH: QVTLKESGPGILQPSQTLSLTCSFSGFSLNTFGLGVGWIRQPSGKGLEWLTHIWWNDDKYYNPALKSRLTISRDTSENLVFLKIANVDTADTATYYCARIEGLRRFDYWGQGTTLTVSS VL: DIQMTQSPSSLSASLGGKVTITCKTSQDINKFIAWYQHKPGKGPRLLIHYTSTLQPGIPSRFSGSGSGRDYSFSISDLEPEDIATYYCLQYANLWAFGGGTKLEIK	0.319	–	0.024	0.0476	–	0.0243	–	25.3	0.00639	253000	–	–	–	no binding	0.9	45	–	0.225	0.229 µg/mL and 1.53 nM	0.417
